Test results from paper PMC9482650, “Quantitative fragmentomics allow affinity mapping of interactomes” (Nature Communications, 2022).

T1: LNX2_1, Q8N448
T1 sequence (Q8N448 228-328, limits assumed, looked up): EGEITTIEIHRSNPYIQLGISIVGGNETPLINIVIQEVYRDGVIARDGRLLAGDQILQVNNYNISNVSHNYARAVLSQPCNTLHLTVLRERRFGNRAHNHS

T2: MPDZ_7, O75970
T2 sequence (O75970 1146-1253, limits assumed, looked up): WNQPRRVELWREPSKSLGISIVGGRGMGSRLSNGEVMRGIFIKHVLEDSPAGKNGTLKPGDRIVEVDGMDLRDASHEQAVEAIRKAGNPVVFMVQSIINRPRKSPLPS

T3: MPP1, Q00013
T3 sequence (Q00013 66-162, limits assumed, looked up): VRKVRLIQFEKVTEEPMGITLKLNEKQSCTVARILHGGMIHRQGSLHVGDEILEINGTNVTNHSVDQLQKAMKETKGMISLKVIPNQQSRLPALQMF

T4: NHERF1_2, O14745
T4 sequence (O14745 149-244, limits assumed, looked up): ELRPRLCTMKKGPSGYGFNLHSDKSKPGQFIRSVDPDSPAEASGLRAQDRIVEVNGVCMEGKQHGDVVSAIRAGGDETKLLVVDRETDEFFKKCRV

T5: NHERF3_2, Q5T2W1
T5 sequence (Q5T2W1 129-225, limits assumed, looked up): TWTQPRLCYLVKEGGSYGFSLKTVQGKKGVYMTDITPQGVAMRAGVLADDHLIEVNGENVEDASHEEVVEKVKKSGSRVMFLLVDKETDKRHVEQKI

T6: PDZD4, Q76G19
T6 sequence (Q76G19 125-224, limits assumed, looked up): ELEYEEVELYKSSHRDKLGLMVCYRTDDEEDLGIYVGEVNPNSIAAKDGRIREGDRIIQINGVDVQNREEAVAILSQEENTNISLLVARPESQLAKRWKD

T7: PDZD7_1, Q9H5P4
T7 sequence (Q9H5P4 81-178, limits assumed, looked up): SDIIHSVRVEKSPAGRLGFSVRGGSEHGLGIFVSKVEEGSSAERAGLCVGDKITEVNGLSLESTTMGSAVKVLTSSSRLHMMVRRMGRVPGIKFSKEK

T8: PDZD8, Q8NEN9
T8 sequence (Q8NEN9 361-459, limits assumed, looked up): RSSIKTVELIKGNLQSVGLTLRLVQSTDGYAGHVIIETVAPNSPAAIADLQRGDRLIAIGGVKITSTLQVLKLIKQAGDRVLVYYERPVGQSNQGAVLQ

T9: PTPN13_4, Q12923
T9 sequence (Q12923 1783-1878, limits assumed, looked up): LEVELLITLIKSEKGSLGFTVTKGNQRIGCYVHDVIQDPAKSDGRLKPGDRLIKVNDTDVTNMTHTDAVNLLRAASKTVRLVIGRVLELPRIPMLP

T10: PTPN13_5, Q12923
T10 sequence (Q12923 1877-1975, limits assumed, looked up): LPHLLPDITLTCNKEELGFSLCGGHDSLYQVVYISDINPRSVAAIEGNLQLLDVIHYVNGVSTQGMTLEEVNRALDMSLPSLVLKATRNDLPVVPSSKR

T11: TJP3_1, O95049
T11 sequence (O95049 6-103, limits assumed, looked up): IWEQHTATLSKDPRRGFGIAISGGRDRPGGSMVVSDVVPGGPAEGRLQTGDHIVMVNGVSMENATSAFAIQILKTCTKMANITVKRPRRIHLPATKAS

T12: TJP3_2, O95049
T12 sequence (O95049 190-282, limits assumed, looked up): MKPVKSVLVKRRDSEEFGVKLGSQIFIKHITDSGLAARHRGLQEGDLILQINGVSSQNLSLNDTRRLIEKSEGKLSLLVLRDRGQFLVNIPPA

T13: PARD6B, Q9BYG5
T13 sequence (Q9BYG5 152-260, limits assumed, looked up): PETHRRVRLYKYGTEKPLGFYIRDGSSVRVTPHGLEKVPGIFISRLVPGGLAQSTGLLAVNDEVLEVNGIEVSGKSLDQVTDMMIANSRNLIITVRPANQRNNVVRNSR

T14: SNTB2, Q13425
T14 sequence (Q13425 110-208, limits assumed, looked up): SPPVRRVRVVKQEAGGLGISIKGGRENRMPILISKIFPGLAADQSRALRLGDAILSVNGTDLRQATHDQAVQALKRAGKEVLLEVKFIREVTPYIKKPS


Assays:
Assay in all cases: holdup assay
Design in all cases: key: below the threshold = too weak to quantify, mostly under pKd 3.1 to 4
[1] = biological target: CNKSR3, Q6P9H4
Chain of CNKSR3, Q6P9H4 (Q6P9H4 203-303): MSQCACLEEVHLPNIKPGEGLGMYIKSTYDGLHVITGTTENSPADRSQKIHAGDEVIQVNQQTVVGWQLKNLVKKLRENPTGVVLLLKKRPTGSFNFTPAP

[2] = biological target: Inadl_7, Q8NI35
Chain of Inadl_7, Q8NI35 (Q8NI35 1219-1332): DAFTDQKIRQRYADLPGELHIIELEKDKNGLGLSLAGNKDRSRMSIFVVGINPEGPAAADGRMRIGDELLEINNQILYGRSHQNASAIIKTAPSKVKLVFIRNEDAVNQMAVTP

[3] = biological target: T1, LNX2_1, Q8N448
[4] = biological target: MAGI3_4, Q5TCQ9
Chain of MAGI3_4, Q5TCQ9 (Q5TCQ9 716-815): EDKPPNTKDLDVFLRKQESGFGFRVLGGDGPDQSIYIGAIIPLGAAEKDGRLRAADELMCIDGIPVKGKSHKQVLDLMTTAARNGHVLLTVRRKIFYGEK

[5] = biological target: T2, MPDZ_7, O75970
[6] = biological target: T3, MPP1, Q00013
[7] = biological target: T4, NHERF1_2, O14745
[8] = biological target: T5, NHERF3_2, Q5T2W1
[9] = biological target: PARD3_1, Q8TEW0
Chain of PARD3_1, Q8TEW0 (Q8TEW0 264-372): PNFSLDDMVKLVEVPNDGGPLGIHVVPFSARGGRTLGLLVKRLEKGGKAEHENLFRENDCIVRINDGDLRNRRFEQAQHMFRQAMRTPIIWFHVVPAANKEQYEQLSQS

[10] = biological target: T6, PDZD4, Q76G19
[11] = biological target: T7, PDZD7_1, Q9H5P4
[12] = biological target: T8, PDZD8, Q8NEN9
[13] = biological target: T9, PTPN13_4, Q12923
[14] = biological target: T10, PTPN13_5, Q12923
[15] = biological target: SCRIB_4, Q14160
Chain of SCRIB_4, Q14160 (Q14160 1095-1204): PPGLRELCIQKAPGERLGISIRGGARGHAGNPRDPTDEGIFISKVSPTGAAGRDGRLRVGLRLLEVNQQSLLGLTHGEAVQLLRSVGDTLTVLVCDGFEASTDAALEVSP

[16] = biological target: TJP1_1, Q07157
Chain of TJP1_1, Q07157 (Q07157 18-120): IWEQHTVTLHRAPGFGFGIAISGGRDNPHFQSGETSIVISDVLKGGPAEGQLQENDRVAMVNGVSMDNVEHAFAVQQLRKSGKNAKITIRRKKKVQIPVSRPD

[17] = biological target: T11, TJP3_1, O95049
[18] = biological target: T12, TJP3_2, O95049
[19] = biological target: DVL2, O14641; details: plain residues with an end cap or a label only (N-terminal biotin on a linker: (peg)3)
Chain of DVL2, O14641 (O14641 260-359): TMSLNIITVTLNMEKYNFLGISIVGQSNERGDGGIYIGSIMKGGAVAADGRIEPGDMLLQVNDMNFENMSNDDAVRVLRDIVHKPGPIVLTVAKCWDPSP

[20] = biological target: T13, PARD6B, Q9BYG5; details: plain residues with an end cap or a label only (N-terminal biotin on a linker: (peg)3)
[21] = biological target: PDZD9, Q8IXQ8; details: plain residues with an end cap or a label only (N-terminal biotin on a linker: (peg)3)
Chain of PDZD9, Q8IXQ8 (Q8IXQ8 23-120): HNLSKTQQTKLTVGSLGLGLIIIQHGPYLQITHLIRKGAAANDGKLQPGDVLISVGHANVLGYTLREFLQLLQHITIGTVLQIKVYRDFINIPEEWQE

[22] = biological target: RIMS2, Q9UQ26; details: plain residues with an end cap or a label only (N-terminal biotin on a linker: (peg)3)
Chain of RIMS2, Q9UQ26 (Q9UQ26 637-758): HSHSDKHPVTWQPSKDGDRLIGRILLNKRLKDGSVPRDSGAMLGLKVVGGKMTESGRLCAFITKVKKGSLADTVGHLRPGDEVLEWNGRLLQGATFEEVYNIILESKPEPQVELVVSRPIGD

[23] = biological target: T14, SNTB2, Q13425; details: plain residues with an end cap or a label only (N-terminal biotin on a linker: (peg)3)
[24] = modified: phospho on T at position -2 from the C-terminal residue
[25] = plain residues with an end cap or a label only (N-terminal biotin on a linker: (peg)3)

Binder | pKd [19] | pKd [2, 25] | pKd [3, 25] | pKd [4, 25] | pKd [5, 25] | pKd [6, 25] | pKd [7, 25] | pKd [8, 25] | pKd [9, 25] | pKd [20] | pKd [10, 25] | pKd [11, 25] | pKd [12, 25] | pKd [21] | pKd [13, 25] | pKd [14, 25] | pKd [22] | pKd [15, 25] | pKd [23] | pKd [16, 25] | also measured
SSRTRRETQL [HPV16-E6_-2P, P03126] |  |  |  |  |  |  |  |  |  |  |  |  |  |  |  |  |  |  |  |  | pKd [1, 24]: below the threshold; pKd [2, 24]: below the threshold; pKd [3, 24]: below the threshold; pKd [4, 24]: below the threshold; pKd [5, 24]: below the threshold; pKd [6, 24]: below the threshold; pKd [7, 24]: below the threshold; pKd [8, 24]: below the threshold; pKd [9, 24]: below the threshold; pKd [10, 24]: below the threshold; pKd [11, 24]: below the threshold; pKd [12, 24]: below the threshold; pKd [13, 24]: below the threshold; pKd [14, 24]: below the threshold; pKd [15, 24]: below the threshold; pKd [16, 24]: below the threshold; pKd [17, 24]: below the threshold; pKd [18, 24]: below the threshold
RYEDTTLVEDTVL [WNV-NS5, Q9Q6P4] | below the threshold | below the threshold | below the threshold | below the threshold | below the threshold | below the threshold | below the threshold | below the threshold | below the threshold | below the threshold | below the threshold | below the threshold | below the threshold | below the threshold | below the threshold | below the threshold | below the threshold | below the threshold | below the threshold | below the threshold | pKd [17, 25]: below the threshold; pKd [18, 25]: 4.25
RRRRSQSRESQC [HBV-HBc, P03193] | below the threshold | below the threshold | below the threshold | below the threshold | below the threshold | below the threshold | 3.96 | below the threshold | below the threshold | below the threshold | below the threshold | below the threshold | below the threshold | below the threshold | below the threshold | below the threshold | below the threshold | below the threshold | 4.58 | below the threshold | pKd [1, 25]: below the threshold; pKd [17, 25]: below the threshold; pKd [18, 25]: below the threshold
QQSMSSADSTQA [SARS-Cov2-N, P0DTC9] | below the threshold | below the threshold | below the threshold | below the threshold | below the threshold | below the threshold | below the threshold | below the threshold | below the threshold | below the threshold | below the threshold | below the threshold | below the threshold | below the threshold | below the threshold | below the threshold | below the threshold | below the threshold | below the threshold | below the threshold | pKd [1, 25]: below the threshold; pKd [17, 25]: below the threshold; pKd [18, 25]: below the threshold
